Laboratory results published in patent publication US20220135670A1 (TESARO, published 2022).

Legend:
[1] = target: T1, recombinant soluble human LAG-3 (human, UniProt P18627 23-450, limits assumed); experiment: SPR, recombinant soluble LAG-3
T1 construct: also called soluble LAG-3
T1 sequence (looked up): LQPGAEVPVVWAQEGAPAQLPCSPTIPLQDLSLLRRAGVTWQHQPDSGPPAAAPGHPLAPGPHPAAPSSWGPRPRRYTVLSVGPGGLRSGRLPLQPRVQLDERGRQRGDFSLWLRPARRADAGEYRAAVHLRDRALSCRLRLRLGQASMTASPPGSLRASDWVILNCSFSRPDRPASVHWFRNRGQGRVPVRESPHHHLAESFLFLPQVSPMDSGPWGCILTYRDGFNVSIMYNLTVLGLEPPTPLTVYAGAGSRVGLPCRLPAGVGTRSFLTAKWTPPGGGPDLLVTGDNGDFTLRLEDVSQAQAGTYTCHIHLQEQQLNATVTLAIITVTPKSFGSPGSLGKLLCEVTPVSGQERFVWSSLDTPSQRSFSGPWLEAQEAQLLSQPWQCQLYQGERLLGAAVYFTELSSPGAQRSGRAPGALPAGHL

[2] = target: T2, recombinant soluble cynomolgus monkey LAG-3 (cynomolgus monkey); experiment: SPR, recombinant soluble LAG-3
T2 construct: also called Cyno LAG-3; soluble LAG-3

[3] = target: T3, LAG-3 expressed on Jurkat cells (Homo sapiens (Human), UniProt P18627 23-525); experiment: cell-based or functional assay
T3 sequence: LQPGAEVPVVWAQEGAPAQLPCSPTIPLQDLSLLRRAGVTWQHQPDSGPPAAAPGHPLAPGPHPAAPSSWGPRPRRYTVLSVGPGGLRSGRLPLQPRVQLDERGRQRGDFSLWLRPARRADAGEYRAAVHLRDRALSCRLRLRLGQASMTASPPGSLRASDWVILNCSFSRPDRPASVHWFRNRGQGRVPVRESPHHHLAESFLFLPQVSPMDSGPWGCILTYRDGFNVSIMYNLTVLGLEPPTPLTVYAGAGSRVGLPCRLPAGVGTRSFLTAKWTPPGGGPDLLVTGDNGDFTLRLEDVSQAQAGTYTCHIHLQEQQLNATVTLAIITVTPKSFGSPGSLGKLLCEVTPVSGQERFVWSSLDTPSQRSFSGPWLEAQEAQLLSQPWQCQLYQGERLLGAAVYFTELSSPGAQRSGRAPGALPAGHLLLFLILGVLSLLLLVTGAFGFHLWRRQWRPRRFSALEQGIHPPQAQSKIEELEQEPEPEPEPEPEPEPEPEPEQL

[4] = target: T4, human LAG-3 expressed on the surface of CHO cells (human, UniProt P18627 23-525); experiment: binding to LAG-3 expressing CHO cells
T4 construct: whole, on cells; also called LAG-3 expressing CHO cells; cell-surface-expressed LAG-3
T4 sequence (looked up): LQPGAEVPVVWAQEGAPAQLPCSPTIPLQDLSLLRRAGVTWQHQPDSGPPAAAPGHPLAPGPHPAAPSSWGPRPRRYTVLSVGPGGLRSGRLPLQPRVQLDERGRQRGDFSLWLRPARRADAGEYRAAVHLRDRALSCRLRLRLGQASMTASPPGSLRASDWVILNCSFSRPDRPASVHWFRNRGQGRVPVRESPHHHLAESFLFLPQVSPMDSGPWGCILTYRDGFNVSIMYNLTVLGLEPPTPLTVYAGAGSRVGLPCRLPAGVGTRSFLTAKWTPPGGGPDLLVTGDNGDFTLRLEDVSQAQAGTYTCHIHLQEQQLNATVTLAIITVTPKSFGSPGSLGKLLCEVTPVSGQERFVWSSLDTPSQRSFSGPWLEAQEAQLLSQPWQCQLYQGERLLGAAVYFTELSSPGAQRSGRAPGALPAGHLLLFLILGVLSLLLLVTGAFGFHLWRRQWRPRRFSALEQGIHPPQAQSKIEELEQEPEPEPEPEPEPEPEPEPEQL

[5] = target: T5, cynomolgus monkey LAG-3 expressed on the surface of CHO cells (cynomolgus monkey); experiment: binding to LAG-3 expressing CHO cells
T5 construct: whole, on cells; also called Cyno LAG-3; LAG-3 expressing CHO cells

[6] = target: T6, LAG-3 (axis label "%LAG-3 OCCUPANCY", DONOR 1 to DONOR 4) (human, UniProt P18627); experiment: receptor occupancy assay on SEB-stimulated human donor PBMCs (4 donors)
T6 construct: full-length, on the cell surface; also called LAG-3 on SEB-stimulated human donor PBMCs
T6 sequence (receptor, looked up): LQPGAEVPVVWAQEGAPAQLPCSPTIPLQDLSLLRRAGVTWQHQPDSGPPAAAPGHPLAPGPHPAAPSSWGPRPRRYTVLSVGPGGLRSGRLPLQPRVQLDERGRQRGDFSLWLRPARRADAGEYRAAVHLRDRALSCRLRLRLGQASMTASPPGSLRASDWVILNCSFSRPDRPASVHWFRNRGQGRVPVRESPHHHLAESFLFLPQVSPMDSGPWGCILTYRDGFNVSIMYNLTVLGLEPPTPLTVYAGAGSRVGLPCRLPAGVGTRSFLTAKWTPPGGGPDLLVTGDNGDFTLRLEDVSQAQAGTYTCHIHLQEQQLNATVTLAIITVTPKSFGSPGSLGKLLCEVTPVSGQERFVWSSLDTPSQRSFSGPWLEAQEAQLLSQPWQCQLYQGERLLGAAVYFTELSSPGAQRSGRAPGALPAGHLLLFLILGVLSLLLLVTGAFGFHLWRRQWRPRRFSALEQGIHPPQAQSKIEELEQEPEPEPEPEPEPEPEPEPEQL

[7] = target: DyLight 650 (DyL650)-labeled LAG-3 fusion protein; experiment: flow cytometry competition: antibody titrated against binding of the DyL650-labeled LAG-3 fusion protein to MHC class II on Daudi cells; readout MFI (Dyl650)

B1: anti-LAG-3 antibody agent TSR-033 (antibody, human IgG4 S228P, kappa, V domains shown)
VH: EVQLVQSGAEVKKPGATVKISCKASGFSIKDDYIHWVQQAPGKGLEWMGWIDAMNDDSQYSSKFQGRVTITVDTSTNTAYMKLSSLRSEDTAVYYCTYAFGGYWGQGTTVTVSS
VL: DIVMTQTPLSLSVTPGQPASISCRSSQSLVHSDSNTYLHWYLQKPGQSPQLLIYLVSNRFSGVPDRFSGSGSGTDFTLKISRVEAEDVGVYFCGQSTHVPYAFGGGTKVEIKR
modifications: N-glycosylation at N291 of the heavy chain
notes: also called exemplary anti-LAG-3 antibody agent; exemplary anti-LAG-3 antibody
Work on B1 yielded a Kd [1] of 0.95 nM, a koff [1] of 0.00013 s⁻¹ and a Kd [2] of 2 nM. For the same binder, the koff [2] was 0.00026 s⁻¹, the “EC50 (read off the curve); NFAT-luciferase reporter signal (RLU)” value [3] was about 70 nM and the EC50 [4] was 0.8 nM. The EC50 [5] was 2.6 nM, the “EC50 (read off the curve)” value [6] was about 0.06 µg/mL and the IC50 [7] was 3.4 nM.
